Assay results: IntAct's records for PubMed 17227844

B1: Spindle assembly checkpoint protein BUB3 (Saccharomyces cerevisiae), P26449 (parent)
chain: MQIVQIEQAPKDYISDIKIIPSKSLLLITSWDGSLTVYKFDIQAKNVDLLQSLRYKHPLLCCNFIDNTDLQIYVGTVQGEILKVDLIGSPSFQALTNNEANLGICRICKYGDDKLIAASWDGLIEVIDPRNYGDGVIAVKNLNSNNTKVKNKIFTMDTNSSRLIVGMNNSQVQWFRLPLCEDDNGTIEESGLKYQIRDVALLPKEQEGYACSSIDGRVAVEFFDDQGDDYNSSKRFAFRCHRLNLKDTNLAYPVNSIEFSPRHKFLYTAGSDGIISCWNLQTRKKIKNFAKFNEDSVVKIACSDNILCLATSDDTFKTNAAIDQTIELNASSIYIIFDYEN
partner: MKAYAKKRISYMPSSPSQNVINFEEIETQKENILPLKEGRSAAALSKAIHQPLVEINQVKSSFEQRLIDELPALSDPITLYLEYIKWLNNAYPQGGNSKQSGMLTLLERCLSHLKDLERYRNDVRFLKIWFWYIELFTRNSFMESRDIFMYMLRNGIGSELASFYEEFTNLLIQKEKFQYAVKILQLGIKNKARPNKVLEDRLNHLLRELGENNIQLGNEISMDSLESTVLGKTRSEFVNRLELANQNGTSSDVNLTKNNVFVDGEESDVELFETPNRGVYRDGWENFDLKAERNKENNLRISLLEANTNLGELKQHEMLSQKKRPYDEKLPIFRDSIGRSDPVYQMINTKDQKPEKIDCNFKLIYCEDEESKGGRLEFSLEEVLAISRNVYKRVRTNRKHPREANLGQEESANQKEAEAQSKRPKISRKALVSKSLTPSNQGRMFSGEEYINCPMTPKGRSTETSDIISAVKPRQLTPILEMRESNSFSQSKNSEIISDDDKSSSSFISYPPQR

Variants of: B1
Settings: with mad3_yeast MAD3, P47074

effect of a mutation on the interaction | Variant
disrupting interaction strength | MQIVQIEQAPKDYISDIKIIPSKSLLLITSWDGSLTVYKFDIQAKNVDLLQSLRYKHPLLCCNFIDNTDLQIYVGTVQGEILKVDLIGSPSFQALTNNEANLGICRICKYGDDKLIAASWDGLIEVIDPRNYGDGVIAVKNLNSNNTKVKNKIFTMDTNSSRLIVGMNNSQVQWFRLPLCEDDNGTIEESGLKYQIEDVALLPKEQEGYACSSIDGRVAVEFFDDQGDDYNSSKRFAFRCHRLNLKDTNLAYPVNSIEFSPRHKFLYTAGSDGIISCWNLQTRKKIKNFAKFNEDSVVKIACSDNILCLATSDDTFKTNAAIDQTIELNASSIYIIFDYEN [R197E]
